Values joined by “and” are separate entries in the source; they are usually repeats but may differ in a detail not shown here. Equal entries are not always repeated. “Also recorded” adds a separate entry of the source. Where two headings read alike, the source gives them in different places.
What was measured:
E. coli FAS apo-ACP = E. coli FAS apo-ACP (Escherichia coli, UniProt P0A6A8); details: for phosphopantetheinylation of ACP: 25 μM ACP, 60 min at 37° C., FIG. 11
apo-ACP [1] = biological target: T1, apo-ACP (Escherichia coli, UniProt P0A6A8+P24224); details: 50 μM apo-ACP, 1.8 μM ACPS, 210 μM [3H]CoA, 36 hour, 37° C., replicates
apo-ACP [2] = biological target: T1, apo-ACP; details: for Km: steady-state kinetics, [3H]CoA radioassay
EntF = biological target: T2, EntF (Escherichia coli, UniProt P11454); experiment: [3H]-4'-phosphopantetheine incorporation into EntF; type: biochemical, E. coli; details: for time course of modification of EntF: EntD 100 nM, ACPS and o195 at 15-fold higher concentrations, FIG. 14A; for phosphopantetheinylation of EntF: FIG. 12
T2 construct: made in house
Description: A time course of EntD-catalyzed incorporation of radiolabel into EntF was performed.

Streptomycete ACPs = experiment: modification of apo-form of Streptomycete ACPs; type: biochemical
apo-Dcp = experiment: in vitro phosphopantetheinylation of D-Alanyl carrier protein; type: biochemical, Lactobacillus casei
Description: In another example, varying concentrations of apo-Dcp were incubated with ACPS at 37° C. to determine extent of phosphopantetheinylation.
The assays were incubated overnight at 37° C.
The [^3H] holo-Dcp formed was quantitated by dividing dpm by specific activity of pantetheinyl moiety of CoA which is equal to 4.83×10^14 dmp/mol.

[3] = tested on: His6-PCP (peptidyl carrier protein domain of TycA); experiment: [3H]-4'-phosphopantetheine transfer radioassay, His6-PCP substrate; details: for phosphopantetheinylation of His6-PCP: 25 μM His6-PCP, 60 min at 37° C., FIG. 11
SrfB1 [4] = biological target: T3, SrfB1 (Bacillus subtilis, UniProt Q04747); experiment: [14C] amino acid activation by holo-SrfB1 formed with Sfp; type: biochemical; details: 2 μM apo-SrfB1, 1.3 μM Sfp, 200 μM CoASH, FIG. 15
T3 construct: hexa-histidine (His6, from pPROEX-1) (N); made in house; host or cells: E. coli AG1574 (plasmid pML 118)
Description: The reaction was performed as follows. Apo-SrfB1 (2 μM) was incubated with 200 μM CoASH, 75 mM Tris.HCl pH 8.0, 10 mM MgCl2, 25 mM DTT and 1.3 μM Sfp for 15 min at 37° C. to generate holo-SrfB1. To the SrfB1-Sfp reaction mixture, unlabeled amino acid (valine or aspartic acid) was added to 90 μM final concentration. ATP was added to a final concentration of 2 mM, followed by 0.5 μCi [^14C]Val (281 Ci/mol) or [^14C]Asp (207 Ci/mol). The reaction (115 μL) was incubated for 15 min at 37° C., then stopped by the addition of 800 μL 10% TCA with 15 μL of a 25 mg/mL BSA solution as carrier. The precipitate was collected by centrifugation, washed with 10% TCA, dissolved in 150 μL Tris base, and then counted by liquid scintillation.
Target sequence in this assay (Q04747 92-1307): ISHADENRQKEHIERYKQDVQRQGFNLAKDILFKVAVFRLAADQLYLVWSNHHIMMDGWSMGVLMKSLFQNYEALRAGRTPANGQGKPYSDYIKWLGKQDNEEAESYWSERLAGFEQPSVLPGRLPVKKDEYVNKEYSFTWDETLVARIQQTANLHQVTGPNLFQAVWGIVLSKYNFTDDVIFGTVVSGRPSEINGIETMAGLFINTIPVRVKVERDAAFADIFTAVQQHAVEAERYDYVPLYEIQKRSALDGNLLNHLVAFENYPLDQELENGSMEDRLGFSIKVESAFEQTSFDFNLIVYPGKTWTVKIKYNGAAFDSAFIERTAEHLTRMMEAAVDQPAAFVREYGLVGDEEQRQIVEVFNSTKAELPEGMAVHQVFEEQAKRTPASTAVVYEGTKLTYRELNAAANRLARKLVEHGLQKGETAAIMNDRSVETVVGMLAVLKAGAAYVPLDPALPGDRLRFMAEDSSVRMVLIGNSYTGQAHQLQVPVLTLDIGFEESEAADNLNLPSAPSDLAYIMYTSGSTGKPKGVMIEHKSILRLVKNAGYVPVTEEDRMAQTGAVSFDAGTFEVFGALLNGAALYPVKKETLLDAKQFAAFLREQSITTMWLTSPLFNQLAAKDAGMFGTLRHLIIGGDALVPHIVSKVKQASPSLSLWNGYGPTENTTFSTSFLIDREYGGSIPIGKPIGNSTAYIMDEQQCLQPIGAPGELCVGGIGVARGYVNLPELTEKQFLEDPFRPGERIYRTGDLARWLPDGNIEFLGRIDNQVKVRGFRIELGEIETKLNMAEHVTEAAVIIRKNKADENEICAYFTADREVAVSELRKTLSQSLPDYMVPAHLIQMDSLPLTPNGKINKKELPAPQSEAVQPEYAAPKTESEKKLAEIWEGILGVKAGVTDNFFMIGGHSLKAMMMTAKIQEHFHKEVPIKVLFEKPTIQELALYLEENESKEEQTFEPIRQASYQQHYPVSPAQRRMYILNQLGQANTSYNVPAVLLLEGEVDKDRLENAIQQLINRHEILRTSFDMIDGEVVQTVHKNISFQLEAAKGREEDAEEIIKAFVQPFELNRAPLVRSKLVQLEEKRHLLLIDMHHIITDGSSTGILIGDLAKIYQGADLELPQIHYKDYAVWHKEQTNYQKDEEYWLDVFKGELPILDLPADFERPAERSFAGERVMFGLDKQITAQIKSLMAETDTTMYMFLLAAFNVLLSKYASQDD

SrfB1 [5] = biological target: T3, SrfB1; experiment: [3H]-4'-phosphopantetheine incorporation into SrfB1; type: biochemical; details: FIG. 12
Target sequence in this assay (P39135 whole entry): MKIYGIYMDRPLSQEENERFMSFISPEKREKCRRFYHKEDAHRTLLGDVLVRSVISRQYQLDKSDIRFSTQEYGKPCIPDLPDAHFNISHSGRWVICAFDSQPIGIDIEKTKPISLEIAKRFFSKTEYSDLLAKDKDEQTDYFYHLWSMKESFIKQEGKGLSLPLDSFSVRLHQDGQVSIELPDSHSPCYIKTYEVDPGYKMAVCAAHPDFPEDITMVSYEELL
Target sequence in this assay (Q04747 92-1307): as the sequence (Q04747 92-1307) above

T1 sequence (P0A6A8 2-78, one chain of several): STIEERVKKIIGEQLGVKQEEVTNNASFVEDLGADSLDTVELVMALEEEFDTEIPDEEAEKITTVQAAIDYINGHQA
Sequence of His6-PCP (peptidyl carrier protein domain of TycA) (P09095 528-602): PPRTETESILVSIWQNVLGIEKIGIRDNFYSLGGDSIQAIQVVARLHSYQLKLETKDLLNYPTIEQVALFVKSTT
Sequence of E. coli FAS apo-ACP (P0A6A8 2-78): as the sequence (P0A6A8 2-78, one chain of several) above
T2 sequence (P11454 whole entry): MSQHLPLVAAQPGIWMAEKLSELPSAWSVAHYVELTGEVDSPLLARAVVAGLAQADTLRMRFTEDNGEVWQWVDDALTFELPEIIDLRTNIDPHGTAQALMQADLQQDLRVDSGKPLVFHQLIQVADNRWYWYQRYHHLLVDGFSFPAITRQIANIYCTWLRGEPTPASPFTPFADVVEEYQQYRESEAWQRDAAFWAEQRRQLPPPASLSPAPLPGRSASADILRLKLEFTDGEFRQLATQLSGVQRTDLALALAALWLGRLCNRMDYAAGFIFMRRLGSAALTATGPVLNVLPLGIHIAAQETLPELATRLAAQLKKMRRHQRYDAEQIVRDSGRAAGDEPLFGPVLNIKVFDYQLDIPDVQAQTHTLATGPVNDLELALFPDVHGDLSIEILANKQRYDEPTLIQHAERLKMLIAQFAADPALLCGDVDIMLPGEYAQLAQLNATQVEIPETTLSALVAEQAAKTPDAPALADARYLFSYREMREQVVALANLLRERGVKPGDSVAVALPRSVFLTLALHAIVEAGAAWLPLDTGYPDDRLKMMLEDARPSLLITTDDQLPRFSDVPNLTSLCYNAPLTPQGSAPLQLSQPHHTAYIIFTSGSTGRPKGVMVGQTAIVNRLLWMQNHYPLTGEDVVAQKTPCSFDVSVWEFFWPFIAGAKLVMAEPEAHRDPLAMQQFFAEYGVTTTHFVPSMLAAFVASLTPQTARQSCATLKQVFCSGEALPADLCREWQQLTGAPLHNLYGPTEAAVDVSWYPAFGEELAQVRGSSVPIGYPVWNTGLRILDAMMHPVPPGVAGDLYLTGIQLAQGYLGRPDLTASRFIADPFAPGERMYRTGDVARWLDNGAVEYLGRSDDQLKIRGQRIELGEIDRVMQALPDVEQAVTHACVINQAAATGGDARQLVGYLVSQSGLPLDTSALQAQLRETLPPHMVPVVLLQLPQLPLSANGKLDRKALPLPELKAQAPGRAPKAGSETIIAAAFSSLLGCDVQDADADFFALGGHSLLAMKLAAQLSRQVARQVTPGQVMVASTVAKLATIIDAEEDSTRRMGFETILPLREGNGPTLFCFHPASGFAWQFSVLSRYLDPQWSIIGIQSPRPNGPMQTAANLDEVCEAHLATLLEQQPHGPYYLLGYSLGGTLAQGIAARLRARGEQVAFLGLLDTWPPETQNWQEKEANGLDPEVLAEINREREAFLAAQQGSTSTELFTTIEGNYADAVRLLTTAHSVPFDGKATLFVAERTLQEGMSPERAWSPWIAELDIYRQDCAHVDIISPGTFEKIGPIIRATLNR

B1: ACPS: recombinant E. coli holo-acyl carrier protein synthase, 14 kDa dpj gene product overproduced in E. coli BL21(DE3)pDPJ (protein)
chain: MAILGLGTDIVEIARIEAVIARSGDRLARRVLSDNEWAIWKTHHQPVRFLAKRFAVKEAAAKAFGTGIRNGLAFNQFEVFNDELGKPRLRLWGEALKLAEKLGVANMHVTLADERHYACATVIIES
time course of modification of apo-ACP (E. coli FAS apo-ACP; FIG. 14B): almost exclusive modification | radioactivity incorporated into the protein fraction, ACP + ACPS (apo-ACP [1]): 2.21 × 10^6 (±.63%) and 2.13 × 10^6 (±.65%) and 2.20 × 10^6 (±.64%) | substrate inhibition at apo-ACP concentrations (apo-ACP [2]): greater than 2 μM | specific activity (apo-ACP [2]; purification from E. coli BL21(DE3)pDPJ, fraction Crude extract): 200 mU · mg^−1 | specific activity (apo-ACP [2]; purification from E. coli BL21(DE3)pDPJ, fraction DE-52): 250 mU · mg^−1 | specific activity (apo-ACP [2]; purification from E. coli BL21(DE3)pDPJ, fraction SP-Sepharose): 320 mU · mg^−1 | specific activity (apo-ACP [2]; purified protein, >95% purity): 320 mU/mg | Km (apo-ACP [2]; read-out: Km value for CoA): 50 µM | Km (apo-ACP [2]; read-out: Km value for apo-ACP (upper limit)): ≤ 1 µM | apparent kcat value (apo-ACP [2]; saturating CoA and 50 μM apo-ACP): about 10 min^−1 | time course of modification of EntF (EntF): almost no modification | modification of apo-form of Streptomycete ACPs (frenolicin, granaticin, oxytetracycline, tetracenomycin) (Streptomycete ACPs): modifies the apo-form | phosphopantetheinylation of Dcp (apo-Dcp): capable of phosphopantetheinylating Dcp | radioactivity incorporated into the protein fraction, Dcp + ACPS (apo-Dcp; 40 μM apo-Dcp, 1.8 μM ACPS, 210 μM [3H]CoA, 36 hour, 37° C., replicates): 1.04 × 10^6 (±0.93%) and 1.00 × 10^6 (±0.77%) and 0.98 × 10^6 (±0.95%) | amount of holo-Dcp formed versus amount of apo-Dcp (apo-Dcp; varying apo-Dcp, 1.8 μM ACPS, overnight at 37° C., FIG. 4): increases linearly

B2: o195: E. coli ORF protein of unknown function, homologous to ACPS, shown to phosphopantetheinylate substrates (protein)
chain: MYRIVLGKVSTLSAAPLPPGLREQAPQGPRRERWLAGRALLSHTLSPLPEIIYGEQGKPAFAPEMPLWFNLSHSGDDIALLLSDEGEVGCDIEVIRPRANWRWLANAVFSLGEHAEMDAVHPDQQLEMFWRIWTRKEAIVKQRGGSAWQIVSVDSTYHSSLSVSHCQLENLSLAICTPTPFTLTADSVQWIDSVN
phosphopantetheinylation of ACP (E. coli FAS apo-ACP): capable of transferring phosphopantetheine groups | phosphopantetheinylation of His6-PCP [3]: capable of transferring phosphopantetheine groups | time course of modification of EntF (EntF): almost no modification

B3: EntD: E. coli protein (23.6 kD) involved in enterobactin biosynthesis, phosphopantetheinyl transferase (protein)
chain: SRQPIGIDIEEIFSVQTARELTDNIITPAEHERLADCGLAFSLALTLAFSAKESAFKASEIQTDAGFLDYQIISWNKQQVIIHRENEMFAVHWQIKEKIVITLCQHD
phosphopantetheinylation of ACP (E. coli FAS apo-ACP): capable of transferring phosphopantetheine groups | phosphopantetheinylation of His6-PCP [3]: capable of transferring phosphopantetheine groups | time course of modification of EntF (EntF): modified effectively | phosphopantetheinylation of EntF (EntF): capable of phosphopantetheinylating

B4: Sfp: B. subtilis protein (26.1 kD) involved in surfactin biosynthesis, shown to be a phosphopantetheinyl transferase (protein)
chain: VIGAFDSQPIGIDIEKTKPISLEIAKRFFSKTEYSDLLAKDKDEQTDYFYHLWSMKESFIKQEGKGLSLPLDSFSVRLHQDGQVSIELPDSHSPCYIKTYEVDPGYKMAVCAAHPDFPEDITMVSYEELL
phosphopantetheinylation of PCP at different substrate concentrations ([3]; 13 nM Sfp, 15 minute reaction, FIG. 13): capable of phosphopantetheinylating a substrate, such as PCP, in a wide range of concentrations | phosphopantetheinylation of His6-PCP [3]: capable of transferring phosphopantetheine groups; also recorded: efficiently catalyzes modification | increase of [14C]-L-valine-holo-SrfB1 covalent complex following incubation with Sfp (SrfB1 [4]): about 14 fold | phosphopantetheinylation of EntF (EntF): can catalyze modification | phosphopantetheinylation of SrfB1 (SrfB1 [5]): capable of phosphopantetheinylating; also recorded: efficiently catalyzes modification

Reference: patent publication US7192735B2, “Phosphopantetheinyl transferases and uses thereof” (President & Fellows of Harvard College, priority 1995, dated 2007)
